# Experimental data published in IntAct's records for PubMed 15772280.
# B1: BTB/POZ domain-containing protein At1g21780 (Arabidopsis thaliana (Mouse-ear cress)), Q9XHZ8 (parent)
# chain: MGDTKVETISRLAQWRIENFGPCSFKKSDPFKVGIWNWHLSIERNRYLSVRLFPELSRVSKEQPPVAKFVLRVSNVGPNRRFYISPVYEKLLRTTDDCVWHVDSSFHGRFTIDVEFLDLKICPVNGGEASPVWPTDATMQSISTQTTLKCLSRMLEESILTDVIIHTADGTLSAHKAILSASSTVFKSMFHHDLMEKESSTIHIDDMSRESCMALLSYLYGNITQEEFWKHRLALLGAANKYDITDLKAACEESLMEDINSSNVLERLQEAWLYQLEKLKKGCLMYLFDFGKIYDVREEISSFFRQADRELMLEMFQEVLSVWKPV
# partner: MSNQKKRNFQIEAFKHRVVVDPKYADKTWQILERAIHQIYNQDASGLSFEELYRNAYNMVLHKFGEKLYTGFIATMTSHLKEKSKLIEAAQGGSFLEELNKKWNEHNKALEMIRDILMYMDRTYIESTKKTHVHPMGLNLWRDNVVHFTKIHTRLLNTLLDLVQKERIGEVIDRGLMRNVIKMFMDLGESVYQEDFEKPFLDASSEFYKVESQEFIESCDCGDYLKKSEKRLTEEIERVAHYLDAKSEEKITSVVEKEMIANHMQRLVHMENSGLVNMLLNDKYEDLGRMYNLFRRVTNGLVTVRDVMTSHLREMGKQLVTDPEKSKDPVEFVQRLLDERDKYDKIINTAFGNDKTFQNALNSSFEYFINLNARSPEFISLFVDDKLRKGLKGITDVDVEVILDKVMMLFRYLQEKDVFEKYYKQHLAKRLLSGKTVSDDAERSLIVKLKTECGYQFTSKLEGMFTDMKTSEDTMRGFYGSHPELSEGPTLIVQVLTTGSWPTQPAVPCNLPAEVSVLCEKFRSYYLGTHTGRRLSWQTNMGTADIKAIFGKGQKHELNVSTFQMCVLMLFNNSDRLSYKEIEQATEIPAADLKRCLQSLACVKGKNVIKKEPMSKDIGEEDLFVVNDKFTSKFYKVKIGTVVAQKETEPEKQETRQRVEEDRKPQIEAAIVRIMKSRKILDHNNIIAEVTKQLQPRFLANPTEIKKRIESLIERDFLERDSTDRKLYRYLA
# B2: Cullin-3A (Arabidopsis thaliana (Mouse-ear cress)), Q9ZVH4 (parent)
# chain: B1 partner
# partner: B1 chain
# Variants of: B1
# Conditions: with cul3a_arath CUL3A, Q9ZVH4
row,effect of a mutation on the interaction,Variant
1,decreasing interaction,Y242A
2,decreasing interaction,I204R

# Variants of: B2
# Conditions: with y1178, Q9XHZ8
row,effect of a mutation on the interaction,Variant
1,decreasing interaction,F49A
2,decreasing interaction,S48A
